The text below walks through data of the supplement of paper PMC10567573.

First the molecules themselves.
B1: RSAD1 (parent)
chain: YCNFNKYIPRRLEEAAMQKCLVTE
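Also: lentivirally expressed fusions sorted by FACS into six bins by GFP to DsRed ratio, PSI derived from sequencing read proportions per bin multiplied by bin number.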

In this data set the parent is B1. Description: protein stability index of a GFP-peptide fusion (GPS, HEK-293T) (PSI 1-6); higher = more stable. The following applies: c terminus: a fixed tail appended.
For YCNFNKSIPRRLEEAAMQKCLVTE [Y7S], the protein stability index stood at 2.51.

Regarding YCNFNKLIPRRLEEAAMQKCLVTE [Y7L], the protein stability index was determined as 2. Then YCNFNKQIPRRLEEAAMQKCLVTE [Y7Q], with 1.8; and YCNFNKVIPRRLEEAAMQKCLVTE [Y7V], with 3.01; and YCNFNKIIPRRLEEAAMQKCLVTE [Y7I], with 2.02. As for YCNFNKTIPRRLEEAAMQKCLVTE [Y7T], the figure is 2.22. Then YCNFNKDIPRRLEEAAMQKCLVTE [Y7D], with 2.49; and YCNFNKMIPRRLEEAAMQKCLVTE [Y7M], with 1.79; and YCNFNKGIPRRLEEAAMQKCLVTE [Y7G], with 2.18. Turning to YCNFNKHIPRRLEEAAMQKCLVTE [Y7H], the protein stability index was determined as 2.68. On to YCNFNKNIPRRLEEAAMQKCLVTE [Y7N], for which the protein stability index came to 2.58. For YCNFNKEIPRRLEEAAMQKCLVTE [Y7E], the protein stability index turned out to be 3.1.

Take YCNFNKPIPRRLEEAAMQKCLVTE [Y7P]: the protein stability index worked out at 2.42. Then YCNFNKAIPRRLEEAAMQKCLVTE [Y7A], with 2.11. Then YCNFNKRIPRRLEEAAMQKCLVTE [Y7R], with 2.31. For the variant YCNFNKFIPRRLEEAAMQKCLVTE [Y7F], the protein stability index was 3.98. Then YCNFNKKIPRRLEEAAMQKCLVTE [Y7K], with 2.42.

Regarding YCNFNKCIPRRLEEAAMQKCLVTE [Y7C], the protein stability index amounted to 2.52. With YCNWNKYIPRRLEEAAMQKCLVTE [F4W], the protein stability index turned out to be 2.56. As for YCNMNKYIPRRLEEAAMQKCLVTE [F4M], the figure is 2.35. For YCNPNKYIPRRLEEAAMQKCLVTE [F4P], the protein stability index came to 2.82. With YCNRNKYIPRRLEEAAMQKCLVTE [F4R], the protein stability index is 1.95. As for YCNSNKYIPRRLEEAAMQKCLVTE [F4S], the figure is 2.8. Take YCNYNKYIPRRLEEAAMQKCLVTE [F4Y]: the protein stability index worked out at 2.23. As for YCNQNKYIPRRLEEAAMQKCLVTE [F4Q], the figure is 2.76; as for YCNVNKYIPRRLEEAAMQKCLVTE [F4V], 3.15.

As to YCNTNKYIPRRLEEAAMQKCLVTE [F4T], the protein stability index was 2.61. Regarding YCNNNKYIPRRLEEAAMQKCLVTE [F4N], the protein stability index came to 2.49. As for YCNFNKYIPRILEEAAMQKCLVTE [R11I], the figure is 3.24. For YCNFNKYIPRLLEEAAMQKCLVTE [R11L], the protein stability index is 2.57. On to YCNFNKYIPRNLEEAAMQKCLVTE [R11N], for which the protein stability index is 1.61. Then YCNFNKYIPRHLEEAAMQKCLVTE [R11H], with 2.96; and YCNFNKYIPRGLEEAAMQKCLVTE [R11G], with 2.64. Then YCNFNKYIPRWLEEAAMQKCLVTE [R11W], with 2.73.

As for YCNFNKYIPRKLEEAAMQKCLVTE [R11K], the protein stability index amounted to 2.14. Turning to YCNFNKYIPRALEEAAMQKCLVTE [R11A], the protein stability index is 3.42. Take YCNFNKYIPRVLEEAAMQKCLVTE [R11V]: the protein stability index amounted to 2.41. For the variant YCNFNKYIPRCLEEAAMQKCLVTE [R11C], the protein stability index came out at 2.17.

With YCNFNKYIPRYLEEAAMQKCLVTE [R11Y], the protein stability index was determined as 1.48.

On to YCNFNKYIPRSLEEAAMQKCLVTE [R11S], for which the protein stability index came out at 1.44. As for YCNFNKYIPRELEEAAMQKCLVTE [R11E], the figure is 2.17. Then YCNFNKYIPRFLEEAAMQKCLVTE [R11F], with 3.01; and YCNFNKYIPRDLEEAAMQKCLVTE [R11D], with 1.84.

As for YCNFNKYIPRQLEEAAMQKCLVTE [R11Q], the protein stability index was found to be 1.67. As for YCNFNKYIPRTLEEAAMQKCLVTE [R11T], the figure is 1.95; as for YCNFNKYIPRRLYEAAMQKCLVTE [E13Y], 1.88; as for YCNFNKYIPRRLCEAAMQKCLVTE [E13C], 1.99. As for YCNFNKYIPRRLPEAAMQKCLVTE [E13P], the figure is 3.17; as for YCNFNKYIPRRLGEAAMQKCLVTE [E13G], 2.11; as for YCNFNKYIPRRLQEAAMQKCLVTE [E13Q], 1.93.

Regarding YCNFNKYIPRRLTEAAMQKCLVTE [E13T], the protein stability index stood at 2.55. As for YCNFNKYIPRRLREAAMQKCLVTE [E13R], the figure is 2.19. As for YCNFNKYIPRRLAEAAMQKCLVTE [E13A], the protein stability index was 2.63. Then YCNFNKYIPRRLIEAAMQKCLVTE [E13I], with 1.66; and YCNFNKYIPRRLHEAAMQKCLVTE [E13H], with 3.29. As for YCNFNKYIPRRLNEAAMQKCLVTE [E13N], the figure is 3.29; as for YCNFNKYIPRRLDEAAMQKCLVTE [E13D], 3.69; as for YCNFNKYIPRRLFEAAMQKCLVTE [E13F], 2.34.

As to YCNFNKYIPRRLKEAAMQKCLVTE [E13K], the protein stability index was 1.82.

With YCNFNKYIPRRLWEAAMQKCLVTE [E13W], the protein stability index was 2.49. Then YCNFNKYIPRRLMEAAMQKCLVTE [E13M], with 2.56. Turning to YCNFNKYIPRRLSEAAMQKCLVTE [E13S], the protein stability index stood at 1.46. As for YCNFNKYIPRRLLEAAMQKCLVTE [E13L], the figure is 2.16.

Turning to YCNFNKYIPRRLECAAMQKCLVTE [E14C], the protein stability index was 2.27. As to YCNFNKYIPRRLEPAAMQKCLVTE [E14P], the protein stability index is 2.92.

As to YCNFNKYIPRRLEGAAMQKCLVTE [E14G], the protein stability index was 3. Turning to YCNFNKYIPRRLETAAMQKCLVTE [E14T], the protein stability index came out at 2.09. As to YCNFNKYIPRRLEDAAMQKCLVTE [E14D], the protein stability index is 2.71. Then YCNFNKYIPRRLEIAAMQKCLVTE [E14I], with 2.32; and YCNFNKYIPRRLESAAMQKCLVTE [E14S], with 2.5; and YCNFNKYIPRRLELAAMQKCLVTE [E14L], with 2.34. As for YCNFNKYIPRRLEKAAMQKCLVTE [E14K], the protein stability index worked out at 1.58. YCNFNKYIPRRLEVAAMQKCLVTE [E14V]: the protein stability index turned out to be 3.05. Consider YCNFNKYIPRRLEAAAMQKCLVTE [E14A], for which the protein stability index turned out to be 3.07.

For YCNFNKYIPRRLEMAAMQKCLVTE [E14M], the protein stability index worked out at 3.14.

With YCNFNKYIPRRLENAAMQKCLVTE [E14N], the protein stability index came out at 3.14. Regarding YCNFNKYIPRRLEQAAMQKCLVTE [E14Q], the protein stability index was found to be 2.85. As for YCNFNKYIPRRLEFAAMQKCLVTE [E14F], the figure is 2.31.

On to YCNFNKYIPRRLERAAMQKCLVTE [E14R], for which the protein stability index stood at 2.33. As for YCNFNKYIPRRLEHAAMQKCLVTE [E14H], the figure is 1.65; as for YCNFHKYIPRRLEEAAMQKCLVTE [N5H], 2.31.

For the variant YCNFDKYIPRRLEEAAMQKCLVTE [N5D], the protein stability index is 1.49.

YCNFSKYIPRRLEEAAMQKCLVTE [N5S]: the protein stability index stood at 3.3. As for YCNFVKYIPRRLEEAAMQKCLVTE [N5V], the figure is 1.19. Then YCNFYKYIPRRLEEAAMQKCLVTE [N5Y], with 2.75; and YCNFLKYIPRRLEEAAMQKCLVTE [N5L], with 3.04; and YCNFRKYIPRRLEEAAMQKCLVTE [N5R], with 2.48.

Turning to YCNFQKYIPRRLEEAAMQKCLVTE [N5Q], the protein stability index worked out at 2.18. Then YCNFTKYIPRRLEEAAMQKCLVTE [N5T], with 2.59; and YCNFGKYIPRRLEEAAMQKCLVTE [N5G], with 2.91.

For YCNFAKYIPRRLEEAAMQKCLVTE [N5A], the protein stability index is 1.68.

Consider YCNFPKYIPRRLEEAAMQKCLVTE [N5P], for which the protein stability index came to 2.07. As for YCNFWKYIPRRLEEAAMQKCLVTE [N5W], the figure is 2.15. YCNFKKYIPRRLEEAAMQKCLVTE [N5K]: the protein stability index turned out to be 2.28.
